Measured values as given in article PMC3538841.

Legend:
Assay in all cases: negative stain EM reconstruction
[1] = molecular target: A/Hong Kong/1/1968 (H3N2) HA (influenza A virus A/Hong Kong/1/1968 (H3N2)) (UniProt Q91MA7)
[2] = molecular target: A/Netherlands/219/2003 (H7N7) HA (influenza A virus A/Netherlands/219/2003 (H7N7)) (UniProt Q6VMK1)
[3] = molecular target: A/South Carolina/1/1918 (H1N1) HA (influenza A virus A/South Carolina/1/1918 (H1N1)) (UniProt Q9WFX3)
[4] = molecular target: Wisc66/H9 HA (influenza A virus, Wisc66 (H9))

Measured: stoichiometry N (Fabs per HA trimer)

Fab CR9114
3: all assays above
